B1: M2638 (bispecific antibody)
heavy: EVQLVESGGGLVQPGGSLRLSCAASGFTFSTYAMNWVRQAPGKGLEWVGRIRSKYNNYATYYADSVKGRFTISRDDSKNTLYLQMNSLRAEDTAVYYCVRHGNFGDSYVSWFAYWGQGTLVTVSSASTKGPSVFPLAPSSKSTSGGTAALGCLVKDYFPEPVTVSWNSGALTSGVHTFPAVLQSSGLYSLSSVVTVPSSSLGTQTYICNVNHKPSNTKVDKKVEPKSCGGGGSQEQLVESGGGLVQPGGSLKLSCKASGFDFSTYGVSWVRQAPGKGLEWIGYIDPVYGSTYYASWVNGRFTISSHNAQNTLYLQLNSLTAADTATYFCVRDLYAGSSGYYMIYSLWGPGTLVTVSSGGGGSGGGGSGGGGSGGGGSELVMTQTPSSVSAAVGGTVTIKCQSSQSVYNNLLGWYQQKPGQPPKLLIYSASTLASGVPSRFSGSGSGTEFTLTISGVQADDAASYYCQGTYYNGDWYYPFGGGTEVVVK
light: QAVVTQEPSLTVSPGGTVTLTCGSSTGAVTTSNYANWVQQKPGKSPRGLIGGTNKRAPGVPARFSGSLLGGKAALTISGAQPEDEADYYCALWYSNHWVFGGGTKLTVLGQPKAAPSVTLFPPSSEELQANKATLVCLISDFYPGAVTVAWKADSSPVKAGVETTTPSKQSNNKYAASSYLSLTPEQWKSHRSYSCQVTHEGSTVEKTVAPTECS
notes: Monovalent Fab-scFv: anti-CD3 Fab with the rabbit anti-pMHC scFv on the C-terminus of the Fab heavy chain; also called rabbit hit M2638; HLA-A*02:01/PRAMExCD3 Fab-scFv
B2: M3202 (bispecific antibody)
heavy: EVQLVESGGGLVQPGGSLRLSCAASGFTFSTYAMNWVRQAPGKGLEWVGRIRSKYNNYATYYADSVKGRFTISRDDSKNTLYLQMNSLRAEDTAVYYCVRHGNFGDSYVSWFAYWGQGTLVTVSSASTKGPSVFPLAPSSKSTSGGTAALGCLVKDYFPEPVTVSWNSGALTSGVHTFPAVLQSSGLYSLSSVVTVPSSSLGTQTYICNVNHKPSNTKVDKKVEPKSCGGGGSDIQMTQSPSSLSASVGDRVTITCRSSQSVYNNLLGWYQQKPGKAPKLLIYSASTLASGVPSRFSGSGSGTDFTLTISSLQPEDSATYYCQGTYYTGDWYYPFGCGTKVEIKGGGGSGGGGSGGGGSGGGGSQVQLVESGGGSVQPGRSLRLSCAASGFDFSTYGVSWVRQAPGKCLEWIGYIDPVYGSTHYADSVKGRFTISRDNSKNTLYLQMNSLRAEDTASYYCVRDLYAGSSGYYMIYSLWGQGTSVTVSS
light: QAVVTQEPSLTVSPGGTVTLTCGSSTGAVTTSNYANWVQQKPGKSPRGLIGGTNKRAPGVPARFSGSLLGGKAALTISGAQPEDEADYYCALWYSNHWVFGGGTKLTVLGQPKAAPSVTLFPPSSEELQANKATLVCLISDFYPGAVTVAWKADSSPVKAGVETTTPSKQSNNKYAASSYLSLTPEQWKSHRSYSCQVTHEGSTVEKTVAPTECS
notes: Humanized variant of M2638, monovalent Fab-scFv
B3: M3285 (bispecific antibody)
heavy: EVQLVESGGGLVQPGGSLRLSCAASGFTFSTYAMNWVRQAPGKGLEWVGRIRSKYNNYATYYADSVKGRFTISRDDSKNTLYLQMNSLRAEDTAVYYCVRHGNFGDSYVSWFAYWGQGTLVTVSSASTKGPSVFPLAPSSKSTSGGTAALGCLVKDYFPEPVTVSWNSGALTSGVHTFPAVLQSSGLYSLSSVVTVPSSSLGTQTYICNVNHKPSNTKVDKKVEPKSCGGGGSDIQMTQSPSSLSASVGDRVTITCRSSQSVYNNLLGWYQQKPGKAPKLLIYSASTLASGVPSRFSGSGSGTDFTLTISSLQPEDSATYYCQGTYYTGDWYYPFGCGTKVEIKGGGGSGGGGSGGGGSGGGGSQVQLVESGGGSVQPGRSLRLSCAASGFDFSTYGVSWVRQAPGKCLEWIGYIDPVYGSTHYADSVKGRFTISRDNSKNTLYLQMNSLRAEDTASYYCARDLYAGSSGYYMIYSLWGQGTSVTVSS
light: QAVVTQEPSLTVSPGGTVTLTCGSSTGAVTTSNYANWVQQKPGKSPRGLIGGTNKRAPGVPARFSGSLLGGKAALTISGAQPEDEADYYCALWYSNHWVFGGGTKLTVLGQPKAAPSVTLFPPSSEELQANKATLVCLISDFYPGAVTVAWKADSSPVKAGVETTTPSKQSNNKYAASSYLSLTPEQWKSHRSYSCQVTHEGSTVEKTVAPTECS
notes: as for B2
B4: M3284 (bispecific antibody)
heavy: EVQLVESGGGLVQPGGSLRLSCAASGFTFSTYAMNWVRQAPGKGLEWVGRIRSKYNNYATYYADSVKGRFTISRDDSKNTLYLQMNSLRAEDTAVYYCVRHGNFGDSYVSWFAYWGQGTLVTVSSASTKGPSVFPLAPSSKSTSGGTAALGCLVKDYFPEPVTVSWNSGALTSGVHTFPAVLQSSGLYSLSSVVTVPSSSLGTQTYICNVNHKPSNTKVDKKVEPKSCGGGGSDIQMTQSPSSLSASVGDRVTITCRSSQSVYNNLLGWYQQKPGKAPKLLIYSASTLASGVPSRFSGSGSGTDFTLTISSLQPEDSATYYCQGTYYTGDWYYPFGCGTKVEIKGGGGSGGGGSGGGGSGGGGSQVQLVESGGGSVQPGRSLRLSCAASGFTVSTYGVSWVRQAPGKCLEWIGYIDPVYGSTHYADSVKGRFTISRDNSKNTLYLQMNSLRAEDTASYYCVRDLYAGSSGYYMIYSLWGQGTSVTVSS
light: QAVVTQEPSLTVSPGGTVTLTCGSSTGAVTTSNYANWVQQKPGKSPRGLIGGTNKRAPGVPARFSGSLLGGKAALTISGAQPEDEADYYCALWYSNHWVFGGGTKLTVLGQPKAAPSVTLFPPSSEELQANKATLVCLISDFYPGAVTVAWKADSSPVKAGVETTTPSKQSNNKYAASSYLSLTPEQWKSHRSYSCQVTHEGSTVEKTVAPTECS
notes: as for B2
B5: M3283 (bispecific antibody)
heavy: EVQLVESGGGLVQPGGSLRLSCAASGFTFSTYAMNWVRQAPGKGLEWVGRIRSKYNNYATYYADSVKGRFTISRDDSKNTLYLQMNSLRAEDTAVYYCVRHGNFGDSYVSWFAYWGQGTLVTVSSASTKGPSVFPLAPSSKSTSGGTAALGCLVKDYFPEPVTVSWNSGALTSGVHTFPAVLQSSGLYSLSSVVTVPSSSLGTQTYICNVNHKPSNTKVDKKVEPKSCGGGGSDIQMTQSPSSLSASVGDRVTITCRSSQSVYNNLLGWYQQKPGKAPKLLIYSASTLASGVPSRFSGSGSGTDFTLTISSLQPEDSATYYCQGTYYTGDWYYPFGCGTKVEIKGGGGSGGGGSGGGGSGGGGSQVQLVESGGGSVQPGRSLRLSCAASGFTFSTYGVSWVRQAPGKCLEWIGYIDPVYGSTHYADSVKGRFTISRDNSKNTLYLQMNSLRAEDTASYYCVRDLYAGSSGYYMIYSLWGQGTSVTVSS
light: QAVVTQEPSLTVSPGGTVTLTCGSSTGAVTTSNYANWVQQKPGKSPRGLIGGTNKRAPGVPARFSGSLLGGKAALTISGAQPEDEADYYCALWYSNHWVFGGGTKLTVLGQPKAAPSVTLFPPSSEELQANKATLVCLISDFYPGAVTVAWKADSSPVKAGVETTTPSKQSNNKYAASSYLSLTPEQWKSHRSYSCQVTHEGSTVEKTVAPTECS
notes: as for B2
B6: M3182 (bispecific antibody)
heavy: EVQLVESGGGLVQPGGSLRLSCAASGFTFSTYAMNWVRQAPGKGLEWVGRIRSKYNNYATYYADSVKGRFTISRDDSKNTLYLQMNSLRAEDTAVYYCVRHGNFGDSYVSWFAYWGQGTLVTVSSASTKGPSVFPLAPSSKSTSGGTAALGCLVKDYFPEPVTVSWNSGALTSGVHTFPAVLQSSGLYSLSSVVTVPSSSLGTQTYICNVNHKPSNTKVDKKVEPKSCGGGGSDIQMTQSPSSLSASVGDRVTITCRSSQSVYNNLLGWYQQKPGKAPKLLIYSASTLASGVPSRFSGSGSGTDFTLTISSLQPEDFATYYCQGTYYTGDWYYPFGCGTKVEIKGGGGSGGGGSGGGGSGGGGSQVQLVESGGGSVQPGRSLRLSCAASGFDFSTYGVSWVRQAPGKCLEWIGYIDPVYGSTHYADSVKGRFTISRDNSKNTLYLQMNSLRAEDTASYYCVRDLYAGSSGYYMIYSLWGQGTSVTVSS
light: QAVVTQEPSLTVSPGGTVTLTCGSSTGAVTTSNYANWVQQKPGKSPRGLIGGTNKRAPGVPARFSGSLLGGKAALTISGAQPEDEADYYCALWYSNHWVFGGGTKLTVLGQPKAAPSVTLFPPSSEELQANKATLVCLISDFYPGAVTVAWKADSSPVKAGVETTTPSKQSNNKYAASSYLSLTPEQWKSHRSYSCQVTHEGSTVEKTVAPTECS
notes: as for B2
B7: M2913 (bispecific antibody)
heavy: EVQLVESGGGLVQPGGSLRLSCAASGFTFSTYAMNWVRQAPGKGLEWVGRIRSKYNNYATYYADSVKGRFTISRDDSKNTLYLQMNSLRAEDTAVYYCVRHGNFGDSYVSWFAYWGQGTLVTVSSASTKGPSVFPLAPSSKSTSGGTAALGCLVKDYFPEPVTVSWNSGALTSGVHTFPAVLQSSGLYSLSSVVTVPSSSLGTQTYICNVNHKPSNTKVDKKVEPKSCGGGGSDIQMTQSPSSLSASVGDRVTITCQSSQSVYNNLLGWYQQKPGKAPKLLIYSASTLASGVPSRFSGSGSGTDFTLTISSLQPEDFATYYCQGTYYNGDWYYPFGCGTKVEIKGGGGSGGGGSGGGGSGGGGSEVQLVESGGGSVQPGGSLRLSCAASGFDFSTYGVSWVRQAPGKCLEWIGYIDPVYGSTYYASWVNGRFTISRDNSKNTLYLQMNSLRAEDTASYYCVRDLYAGSSGYYMIYSLWGQGTSVTVSS
light: QAVVTQEPSLTVSPGGTVTLTCGSSTGAVTTSNYANWVQQKPGKSPRGLIGGTNKRAPGVPARFSGSLLGGKAALTISGAQPEDEADYYCALWYSNHWVFGGGTKLTVLGQPKAAPSVTLFPPSSEELQANKATLVCLISDFYPGAVTVAWKADSSPVKAGVETTTPSKQSNNKYAASSYLSLTPEQWKSHRSYSCQVTHEGSTVEKTVAPTECS
notes: as for B2

These binders were tested against T1, HLA-A*02:01/PRAME antigen (recombinant, … on HLA-A*02:01) (human, Complex biotinylated for SPR capture; site of biotin and any tag not stated, not in the letters.) (assay: SPR (Biacore 8K), biotinylated pMHC captured, Fab-scFv analyte, single-cycle kinetics, 1:1 fit).
T1 construct: also called PRAME target; pMHC
Method: Recombinantly produced hits in Fab-scFv format, as described in Example 4, were evaluated for their ability to bind HLA-A*02:01/PRAME antigen. Binding characterization was performed by surface plasmon resonance (SPR) using a Biacore™ 8k (Cytiva) device. Briefly, 3000 RU of Biotin CAPture reagent (Cytiva) was immobilized on a Series S Sensor Chip CAP (Cytiva) and the biotinylated ligand HLA-A*02:01/PRAME (SEQ ID NO: 68) was diluted in HPS-EP+ running buffer (TEKNOVA) and captured for 300 s at a flow rate of 2 μL/min at flow cell 2 resulting in a ligand capture level of >100 RU. Subsequently, at least three consecutive analyte injections were performed at suitable concentrations applying the single-cycle-kinetics mode at a flow rate of 30 μL/min with an association time of 90 s and the dissociation time set to >400 s. The chip surface was regenerated according to the manufacturer's instructions. After reference flow cell signal and blank injections subtraction, the data was fit to a 1:1 Langmuir binding model to determine the association rate constant kₐ and dissociation rate constant kd and calculate the equilibrium dissociation constant KD (kd/kₐ), also denoted as affinity, using the Biacore™ Insight Evaluation software.

Row | Binder | Kd
1 | B1 | 0.23 nM
2 | B2 | 0.04 nM
3 | B3 | 1.3 nM
4 | B4 | 0.27 nM
5 | B5 | 0.09 nM
6 | B6 | 0.04 nM
7 | B7 | 0.66 nM
